From patent US11219221B2 (FarmHannong Co., Ltd., priority 2017, dated 2022)
Changes are numbered by the printed parent chain. In names and notes the source's numbering stands.

B1: V305M + F360M: CyPPO16 variant (protein)
chain: MLDSLIVGAGISGLSAAHTLQKQQTQFLVTESQGRVGGNITTNRQGDYLWEEGPNSFAPTEDLLRLAVEVGLKEDLVFADRRLPRFVYWNQQLHPVPMSPPAALKTQLLSEAGKWRAALGALGFVGGLVGREEETVRQFFTRHLGTEVTERLVAPFVSGVYAGDVDQLSAQAAFRRVFEFAQLGGGLAAGGILARRQAPPKAPPDPSLPETKTGQLGSFREGLEMLPRAIASQLGDRLKLQWRLTHLEITPQQTYLAHFNTPDGPQQIATRTLILTTPAPITADLLKPLTPALHGVLKEIYYPPMACVVLAYPRAASARPLEGFGHLIPRNQGIRTLGTIWSSCLFPGRTPEGEHLLTNMIGGATDPGIAQLDPEEIAQAVHQDLCKILIRPEFTPKILAVRLWKQAIPQYTLGHLQRLATLEQELSKFPGLHILANYTDGVALGDCVKRGVAVAQKIRSRE
modifications: Synthetic (Protoporphyrinogen IX oxidase (CyPPO16) of Spirulina subsalsa)
notes: CyPPO16 variant
B2: F360M: CyPPO16 variant (protein)
chain: B1 chain with M305V
modifications: Synthetic (Protoporphyrinogen IX oxidase (CyPPO16) of Spirulina subsalsa)
notes: CyPPO16 variant
B3: A162L + V305M + F360M (protein)
chain: B1 chain with A162L
modifications: Synthetic (Protoporphyrinogen IX oxidase (CyPPO16) of Spirulina subsalsa)
B4: F324V: CyPPO16 variant (protein)
chain: B1 chain with M305V, F324V, M360F
modifications: Synthetic (Protoporphyrinogen IX oxidase (CyPPO16) of Spirulina subsalsa)
notes: CyPPO16 variant
B5: A162C + V305M + L327T + F360M (protein)
chain: B1 chain with A162C, L327T
modifications: Synthetic (Protoporphyrinogen IX oxidase (CyPPO16) of Spirulina subsalsa)
B6: F360T: CyPPO16 variant (protein)
chain: B1 chain with M305V, M360T
modifications: Synthetic (Protoporphyrinogen IX oxidase (CyPPO16) of Spirulina subsalsa)
notes: CyPPO16 variant
B7: F360V: CyPPO16 variant (protein)
chain: B1 chain with M305V, M360V
modifications: Synthetic (Protoporphyrinogen IX oxidase (CyPPO16) of Spirulina subsalsa)
notes: CyPPO16 variant
B8: R85A + V160C + A162C + V305M + L327T + F360M: CyPPO16 variant (protein)
chain: B1 chain with R85A, V160C, A162C, L327T
modifications: Synthetic (Protoporphyrinogen IX oxidase (CyPPO16) of Spirulina subsalsa)
notes: CyPPO16 variant
B9: V160C + A162C + V305M + L327T + F360M (protein)
chain: B1 chain with V160C, A162C, L327T
modifications: Synthetic (Protoporphyrinogen IX oxidase (CyPPO16) of Spirulina subsalsa)
B10: R85A: CyPPO16 variant (protein)
chain: B1 chain with R85A, M305V, M360F
modifications: Synthetic (Protoporphyrinogen IX oxidase (CyPPO16) of Spirulina subsalsa)
notes: CyPPO16 variant
B11: V305M: CyPPO16 variant (protein)
chain: B1 chain with M360F
modifications: Synthetic (Protoporphyrinogen IX oxidase (CyPPO16) of Spirulina subsalsa)
notes: CyPPO16 variant
B12: L327T: CyPPO16 variant (protein)
chain: B1 chain with M305V, L327T, M360F
modifications: Synthetic (Protoporphyrinogen IX oxidase (CyPPO16) of Spirulina subsalsa)
notes: CyPPO16 variant
B13: R85A + V160C + A162L + V305M + F360M (protein)
chain: B1 chain with R85A, V160C, A162L
modifications: Synthetic (Protoporphyrinogen IX oxidase (CyPPO16) of Spirulina subsalsa)
B14: V305M + L327T + F360M (protein)
chain: B1 chain with L327T
modifications: Synthetic (Protoporphyrinogen IX oxidase (CyPPO16) of Spirulina subsalsa)

Tests used:
[1] = tested on: CyPPO16; test: Herbicide tolerance test of CyPPO16 wild type and variants in PPO-deficient E. coli BT3(ΔPPO); assay type: cell-based, Spirulina subsalsa; conditions: BT3(ΔPPO) transformants, two or more amino acid mutations, dark; for Herbicide tolerance, tiafenacil: 37° C., 16 to 20 hours, relative to wild type at highest concentration (50, 200 μM); for Herbicide tolerance, flumioxazin: relative to wild type at highest concentration (25, 50 μM); for Herbicide tolerance, sulfentrazone: relative to wild type at highest concentration (2000, 4000 μM)
Procedure: The mutated CyPPO gene obtained from the Example 2 was transformed to BT3 (ΔPPO) strain which is deficient of PPO activity and cultured in LB media with PPO-inhibiting herbicide, thereby examining whether growth of transformed BT3 was not inhibited.
BT3 competent cells were transformed with the pET303-CyPPO16 and pET303-CyPPO17 plasmids and those with a mutation(s) constructed in Example 2 respectively, and were cultured in LB agar media containing carbenicillin (Gold Biotechnology, Co., Ltd.).
Single colony of E. coli transformed with each CyPPO gene was cultured in 3 ml of LB broth containing carbenicillin overnight, and then was subcultured until absorbance (0D600) reached 0.5 to 1. Then, it was diluted with LB broth to OD600=0.5. Again, the diluted solution was serially diluted 4 times by a factor of one tenth.
The LB agar media (LB 25 g/l, Bacto agar 15 g/l) containing carbenicillin (100 μg/ml) and 0 to 4,000 μM of various herbicides dissolved in DMSO was prepared. Next, 10 μl of each diluted solution was dropped on the plate and cultured at 37° C. under light (Tables 7 and 9, FIGS. 2 to 6, and 18 to 22) or dark (Tables 8 and 10, FIGS. 7 to 17, and 23 to 33) for 16 to 20 hours. Then, extent of tolerance was evaluated.
The extent of herbicide tolerance of the mutated genes was evaluated by comparing that of mutated genes with that of wild type. The relative tolerance was represented with “+” as a factor of 10 times. Evaluation result was listed in Tables 7 to10 and FIGS. 2 to 33:
In Tables 7 to 10, tolerance level was presented as of tolerance of wild type and of variants equivalent to that of wild type, and was done as ‘+’ per each 10 fold resistance until ‘+++++’ as maximal resistance. (Tolerance level was evaluated by relative growth level of variants to that of wild type in the media containing highest concentration of herbicide; ‘+’=1-9 fold higher tolerance, ‘++’=10-99 fold higher tolerance, ‘+++’=100-999 fold higher tolerance, ‘++++’=1,000-9,999 fold higher tolerance, ‘+++++’=more than 10,000 fold higher tolerance)
The concentrations of herbicides were written above the photographs of tolerance test. A dilution series (0D600=0.5, 0.05, 0.005, 0.0005, 0.00005) was made and spotted on LB agar plates supplemented with herbicides.

[2] = tested on: CyPPO16; test: PPO enzyme activity of MBP-fused CyPPO16 wild type and variants; assay type: biochemical, Spirulina subsalsa; conditions: PPO enzyme activity relative to wild type; MBP-fused protein, 50 μM protoporphyrinogen IX, room temperature, 30 min
Procedure: Thus, PPO proteins of wild type and variants were expressed as fused to MBP and were used for experiments.
The following process for purification of PPO protein was performed in a 4° C. cold room. Amylose resin (NEB) was packed to 1.5×15 cm column (Bio-Rad, Econo Columns 1.5×15 cm, glass chromatography column, max. vol), and the obtained protein extracts were loaded to the column at a flow rate of 0.2 ml/min. The column was washed with 3 column volumes of buffer and the presence of protein in the washing solution was examined. When the protein was no longer detected, the washing procedure was terminated. Then, the MBP-PPO protein was eluted with approximately 2 column volumes of buffer containing 20 mM maltose. The protein concentration of each eluent was determined and the elution was stopped when the protein was no longer detected. Ten microliter of each fraction was investigated for protein quantification and SDS-PAGE analysis. The highly pure fractions of PPO protein variants were used for the enzyme assay.
Since protoporphyrinogen IX, a substrate of PPO protein, was not commercially available, it was chemically synthesized in the laboratory. Overall process was performed in dark under nitrogen stream. […] of protoporphyrin IX was dissolved in 20 ml of 20% (v/v) EtOH, and stirred under dark condition for 30 minutes. The obtained protoporphyrin IX solution was put into a 15 ml screw tube in an amount of 800 μl, and flushed with nitrogen gas for 5 minutes. To this, 1.5 g of sodium amalgam was added and vigorously shaken for 2 minutes. The lid was opened to exhaust hydrogen gas in the tube. Thereafter, the lid was closed and incubated for 3 minutes. The protoporphyrinogen IX solution was filtered using syringe and cellulose membrane filter. […] To determine the enzyme activity of PPO protein, a reaction mixture was prepared with the following composition (based on 10 ml): 50 mM Tris-Cl (pH 8.0); 50 mM NaCl; 0.04% (v/v) Tween 20; 40 mM glucose (0.072 g); 5 units glucose oxidase (16.6 mg); and 10 units catalase (1 μl).
Hundred and eighty microliters of a reaction mixture containing the purified PPO protein were placed in 96 well plates and 20 μl of […] were added. […] The reaction proceeded at room temperature for 30 min and the fluorescence of protoporphyrin IX was measured using Microplate reader (Sense, Hidex) (excitation: 405 nm; emission: 633 nm). […] To this, 2.7 N HCl was added, and the absorbance at 408 nm was measured. A standard curve was generated using standard protoporphyrin IX, and PPO activity was measured by calibration of protoporphyrin IX using the standard curve of protoporphyrin IX.
Activities of variants were presented relatively compared to that of wild type.

Molecule | Herbicide tolerance, tiafenacil [1] | Herbicide tolerance, flumioxazin [1] | Herbicide tolerance, sulfentrazone [1] | Activity (%) [2] [%]
B1 | +++ (‘+++’=100-999 fold higher tolerance) | ++++ (‘++++’=1,000-9,999 fold higher tolerance) | + (‘+’=1-9 fold higher tolerance) | 35
B2 |  |  |  | 83
B3 | +++++ (‘+++++’=more than 10,000 fold higher tolerance) | +++++ (‘+++++’=more than 10,000 fold higher tolerance) | ++++ (‘++++’=1,000-9,999 fold higher tolerance) | 
B4 |  |  |  | 23
B5 | +++++ (‘+++++’=more than 10,000 fold higher tolerance) | +++++ (‘+++++’=more than 10,000 fold higher tolerance) | ++++ (‘++++’=1,000-9,999 fold higher tolerance) | 
B6 |  |  |  | 25
B7 |  |  |  | 69
B8 |  |  |  | 13
B9 | +++++ (‘+++++’=more than 10,000 fold higher tolerance) | +++++ (‘+++++’=more than 10,000 fold higher tolerance) | +++++ (‘+++++’=more than 10,000 fold higher tolerance) | 
B10 |  |  |  | 94
B11 |  |  |  | 72
B12 |  |  |  | 68
B13 | +++++ (‘+++++’=more than 10,000 fold higher tolerance) | +++++ (‘+++++’=more than 10,000 fold higher tolerance) | +++++ (‘+++++’=more than 10,000 fold higher tolerance) | 
B14 | +++++ (‘+++++’=more than 10,000 fold higher tolerance) | +++++ (‘+++++’=more than 10,000 fold higher tolerance) | ++++ (‘++++’=1,000-9,999 fold higher tolerance) | 
